The text below walks through data of IntAct's records for PubMed 12810663.

The chains are these.
B1: DNA mismatch repair protein Mlh1 (Homo sapiens), P40692 (parent)
chain: MSFVAGVIRRLDETVVNRIAAGEVIQRPANAIKEMIENCLDAKSTSIQVIVKEGGLKLIQIQDNGTGIRKEDLDIVCERFTTSKLQSFEDLASISTYGFRGEALASISHVAHVTITTKTADGKCAYRASYSDGKLKAPPKPCAGNQGTQITVEDLFYNIATRRKALKNPSEEYGKILEVVGRYSVHNAGISFSVKKQGETVADVRTLPNASTVDNIRSIFGNAVSRELIEIGCEDKTLAFKMNGYISNANYSVKKCIFLLFINHRLVESTSLRKAIETVYAAYLPKNTHPFLYLSLEISPQNVDVNVHPTKHEVHFLHEESILERVQQHIESKLLGSNSSRMYFTQTLLPGLAGPSGEMVKSTTSLTSSSTSGSSDKVYAHQMVRTDSREQKLDAFLQPLSKPLSSQPQAIVTEDKTDISSGRARQQDEEMLELPAPAEVAAKNQSLEGDTTKGTSEMSEKRGPTSSNPRKRHREDSDVEMVEDDSRKEMTAACTPRRRIINLTSVLSLQEEINEQGHEVLREMLHNHSFVGCVNPQWALAQHQTKLYLLNTTKLSEELFYQILIYDFANFGVLRLSEPAPLFDLAMLALDSPESGWTEEDGPKEGLAEYIVEFLKKKAEMLADYFSLEIDEEGNLIGLPLLIDNYVPPLEGLPIFILRLATEVNWDEEKECFESLSKECAMFYSIRKQYISEESTLSGQQSEVPGSIPNSWKWTVEHIVYKALRSHILPPKHFTEDGNILQLANLPDLYKVFERC
partner: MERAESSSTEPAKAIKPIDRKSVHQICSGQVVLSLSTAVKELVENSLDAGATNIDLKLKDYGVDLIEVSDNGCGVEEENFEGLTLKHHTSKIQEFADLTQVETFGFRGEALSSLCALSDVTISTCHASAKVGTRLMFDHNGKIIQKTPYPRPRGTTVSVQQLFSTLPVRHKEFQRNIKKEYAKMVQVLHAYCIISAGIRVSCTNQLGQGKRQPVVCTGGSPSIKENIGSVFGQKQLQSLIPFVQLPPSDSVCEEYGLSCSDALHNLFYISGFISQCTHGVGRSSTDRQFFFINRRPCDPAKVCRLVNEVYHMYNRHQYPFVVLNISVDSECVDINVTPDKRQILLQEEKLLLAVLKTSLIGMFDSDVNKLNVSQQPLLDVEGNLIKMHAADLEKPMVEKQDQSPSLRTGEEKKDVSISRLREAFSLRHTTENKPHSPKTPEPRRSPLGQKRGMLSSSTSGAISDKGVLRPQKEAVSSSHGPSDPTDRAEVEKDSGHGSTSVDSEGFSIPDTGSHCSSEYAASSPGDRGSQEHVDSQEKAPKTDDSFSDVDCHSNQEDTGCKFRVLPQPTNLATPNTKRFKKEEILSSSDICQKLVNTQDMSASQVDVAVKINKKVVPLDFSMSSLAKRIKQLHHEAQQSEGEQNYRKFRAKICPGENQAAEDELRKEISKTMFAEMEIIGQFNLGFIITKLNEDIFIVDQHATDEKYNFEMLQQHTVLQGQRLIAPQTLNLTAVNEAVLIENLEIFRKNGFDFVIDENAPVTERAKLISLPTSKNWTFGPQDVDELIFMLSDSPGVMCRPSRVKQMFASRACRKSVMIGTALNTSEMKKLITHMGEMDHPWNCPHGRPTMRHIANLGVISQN
B2: DNA mismatch repair protein Mlh1 (Homo sapiens), P40692 (parent)
chain: B1 chain

Variants of B1 are the subject of the first experiment. The conditions noted are these: with pms2_human PMS2, P54278.
On to I107R, for which the “effect of a mutation on the interaction” value is reported as “with no effect”.

As to P28L, the “effect of a mutation on the interaction” value is recorded as “with no effect”. Regarding G244D, the “effect of a mutation on the interaction” value is listed as “with no effect”. On to I68N, for which the “effect of a mutation on the interaction” value is “with no effect”. For the variant C77Y, the “effect of a mutation on the interaction” value was “with no effect”. On the same count and under the same terms, in the case of G67R it was “with no effect”. On the same count and under the same terms, in the case of A128P it was “with no effect”. Regarding V185G, the “effect of a mutation on the interaction” value is reported as “with no effect”.

In the case of S44F, the “effect of a mutation on the interaction” value is reported as “with no effect”. As to V326A, the “effect of a mutation on the interaction” value is on record as “with no effect”. As for T117R, the “effect of a mutation on the interaction” value was “with no effect”. Consider T117M, for which the “effect of a mutation on the interaction” value is “with no effect”. As for M35R, the “effect of a mutation on the interaction” value is recorded as “with no effect”.

The variants in the next experiment derive from B1. The conditions noted are these: with pms2_human PMS2, P54278. The source holds these as a separate data set.
For the variant I107R, the “effect of a mutation on the interaction” value is “disrupting interaction strength”. On the same count and under the same terms, in the case of P28L it was “disrupting interaction strength”; in that of R265H, “with no effect”; in that of G244D, “disrupting interaction strength”.

Regarding I68N, the “effect of a mutation on the interaction” value is on record as “disrupting interaction strength”. Same read-out and setting: in the case of I219L it was “with no effect”. On the same count and under the same terms, with I219V the entry was “with no effect”; with C77Y, “disrupting interaction strength”. Still for that read-out and setting: in the case of G67R it was “disrupting interaction strength”; in that of A128P, “disrupting interaction strength”. Regarding V185G, the “effect of a mutation on the interaction” value is given as “disrupting interaction strength”. With S44F, the “effect of a mutation on the interaction” value is reported as “disrupting interaction strength”. The same measure, in the same setting: with R217C the entry was “with no effect”. The same measure, in the same setting: with V213M the entry was “with no effect”.

As to I32V, the “effect of a mutation on the interaction” value was “with no effect”. S406N: the “effect of a mutation on the interaction” value is “with no effect”. The same measure, in the same setting: in the case of T117R it was “disrupting interaction strength”; in that of T117M, “disrupting interaction strength”; in that of M35R, “disrupting interaction strength”.

Variants of B1 are the subject of a further experiment. The conditions noted are these: with pms2_human PMS2, P54278. This is another data set of the same source.
On to C77Y, for which the “effect of a mutation on the interaction” value was “decreasing interaction strength”.

The variants in a further experiment derive from B2. The settings on record: with exo1_human EXO1, Q9UQ84.
As for S44F, the “effect of a mutation on the interaction” value is reported as “disrupting interaction strength”.

With I107R, the “effect of a mutation on the interaction” value is “disrupting interaction strength”. The same measure, in the same setting: with G67R the entry was “disrupting interaction strength”. In the case of V213M, the “effect of a mutation on the interaction” value is reported as “with no effect”. In the case of V326A, the “effect of a mutation on the interaction” value is on record as “with no effect”. Still for that read-out and setting: with I32V the entry was “with no effect”; with S406N, “with no effect”. As for V185G, the “effect of a mutation on the interaction” value is given as “disrupting interaction strength”. Consider C77Y, for which the “effect of a mutation on the interaction” value is reported as “disrupting interaction strength”. The same measure, in the same setting: with R217C the entry was “with no effect”; with I68N, “disrupting interaction strength”.

On to G244D, for which the “effect of a mutation on the interaction” value was “disrupting interaction strength”. As for P28L, the “effect of a mutation on the interaction” value was “disrupting interaction strength”.

I219V: the “effect of a mutation on the interaction” value was “with no effect”. Still for that read-out and setting: with I219L the entry was “with no effect”. Same read-out and setting: with M35R the entry was “disrupting interaction strength”. Take T117M: the “effect of a mutation on the interaction” value was “disrupting interaction strength”. Still for that read-out and setting: with T117R the entry was “disrupting interaction strength”. As to R265H, the “effect of a mutation on the interaction” value is listed as “with no effect”. A128P: the “effect of a mutation on the interaction” value was “disrupting interaction strength”.
